We go through one molecule from article PMC4462140.

The target in the experiment is T1, myristoylated zGCAP2 (zebrafish), Q90WX3.
T1 chain: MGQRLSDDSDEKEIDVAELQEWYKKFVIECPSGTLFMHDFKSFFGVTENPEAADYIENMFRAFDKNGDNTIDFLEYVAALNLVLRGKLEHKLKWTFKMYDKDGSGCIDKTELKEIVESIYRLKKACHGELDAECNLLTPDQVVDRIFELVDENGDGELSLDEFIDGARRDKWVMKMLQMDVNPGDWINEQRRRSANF
The experiment can be described thus: SEC; analytical size exclusion chromatography of purified myristoylated zGCAPs on a Primaide HPLC system, as described previously (refs 12, 18, 30); Ca2+ dependence tested; data not shown. The settings on record: remark: other sources report otherwise.

B1: myristoylated zGCAP2, Q90WX3 1-197 (natural protein)
chain: MGQRLSDDSDEKEIDVAELQEWYKKFVIECPSGTLFMHDFKSFFGVTENPEAADYIENMFRAFDKNGDNTIDFLEYVAALNLVLRGKLEHKLKWTFKMYDKDGSGCIDKTELKEIVESIYRLKKACHGELDAECNLLTPDQVVDRIFELVDENGDGELSLDEFIDGARRDKWVMKMLQMDVNPGDWINEQRRRSANF
modifications: here or on the partner: N-terminal myristoyl group; N-terminal myristoyl group
The stoichiometry N is a count of units in the complex or per binding partner. The molecule B1 displayed a percent monomeric form of 80% and a stoichiometry N of 2.
